Assay results: patent publication US20120093811A1 (published 2012)
One block for each binder: values may come before it.

B2: Source 2 VEGF-D, purified recombinant human VEGF-D monomer (R&D Systems, Catalog Number 622-VD/CF) (ligand)
chain: FYDIETLKVIDEEWQRTQCSPRETCVEVASELGKSTNTFFKPPCVNVFRCGGCCNEESLICMNTSTSYISKQLFEISVPLTSVPELVPVKVANHTGCKCLPTAPRHPYS
B5: Source 1 VEGF-D, mature dimeric recombinant human VEGF-D (CSIRO) (ligand)
chain: FAATFYDIETLKVIDEEWQRTQCSPRETCVEVASELGKSTNTFFKPPCVNVFRCGGCCNEESLICMNTSTSYISKQLFEISVPLTSVPELVPVKVANHTGCKCLPTAPRHPYSIIRR

Key:
[1] = target: T1, VEGF-D (recombinant human; source not given) (human, UniProt O43915 89-205, limits assumed); assay: SPR (BIAcore), purified 1A scFv on VEGF-D, repeat 2
T1 construct: also used here as target of IC50 values averaged over Source 1 and Source 2; also called vascular endothelial growth factor-D
T1 sequence: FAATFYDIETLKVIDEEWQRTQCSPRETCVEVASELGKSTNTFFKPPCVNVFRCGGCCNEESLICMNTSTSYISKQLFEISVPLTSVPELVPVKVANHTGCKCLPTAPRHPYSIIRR
Protocol: (§1) Kinetic values were obtained for the three humanized scFv variants, 1A, 3A and 4A (Table 2). All isolated scFv samples were purified as monomer peaks by anti-FLAG affinity and gel filtration chromatography. BIAcore™ analysis was performed by directly immobilizing VEGF-D on a CM5 surface using amine coupling, with the scFv run as the analyte. Analysis of binding was carried out using the BIAevaluation kinetic analysis software. All repeats were separate protein expressions and were performed at 25° C.
(§2) The binding of purified 1A scFv to VEGF-D was analyzed using a BIAcore™ biosensor (Table 3).

[2] = target: T1, VEGF-D (recombinant human; source not …); assay: SPR (BIAcore), VEGF-D amine-coupled on CM5, purified scFv as analyte
Protocol: scFv variants were fully characterized using a BIAcore™ biosensor. All isolated scFv samples were purified as monomer peaks by anti-FLAG affinity chromatography followed by gel filtration chromatography. BIAcore™ analysis was performed by directly immobilizing VEGF-D on a CM5 surface using amine coupling, with the scFv run as the analyte. Analysis of binding was carried out using the BIAevaluation kinetic analysis software. All repeats were separate protein expressions and were performed at 25° C.
Clones F61, A63, AR7, AW61, CJ37, DI126 and DA18 were produced in large-scale expression cultures and purified by anti-FLAG affinity chromatography and gel filtration. The binding kinetics against VEGF-D were then measured using a BIAcore™ biosensor as described previously.

[3] = target: T1, VEGF-D (recombinant human; source not …); assay: SPR (BIAcore), purified 1A scFv on VEGF-D, repeat 3
Protocol: as §1, §2

[4] = target: T1, VEGF-D (recombinant human; source not …); assay: SPR (BIAcore), VEGF-D amine-coupled on CM5, purified scFv as analyte, 25 C
Protocol: as §1

[5] = target: T1, VEGF-D (recombinant human; source not …); assay: SPR (BIAcore), purified 1A scFv on VEGF-D, repeat 1
Protocol: as §1, §2

[6] = target: T1, VEGF-D (recombinant human; source not …); assay: SPR (BIAcore), purified 1A scFv on VEGF-D, average of three repeats
Protocol: as §1, §2

[7] = target: VEGFR-2-EpoR chimeric receptor on VEGFR-2-Ba/F3 cells (mouse, UniProt P35918 20-762); assay: cell-based or functional assay
[8] = target: B5; assay: SPR Protocol A, KD against that of Ig-1A
Protocol: (§3) Protocol A: The first assay format, Protocol A, used an assay system where IgGs were captured on a biosensor chip surface using an anti-human IgG (Fc) antibody and the Source 1 VEGF-D dimer run over the chip as the analyte in solution. This ensured that all IgG molecules were presented to the antigen in an active orientation.
(§4) The SPR protocol was slightly modified to compensate for the dimeric nature of the VEGF-D. Ig-1A or IgG variants were analyzed using an anti-human capture kit as described for Anti-human IgG (Fc) capture above, except that 1000 RU of the IgG or IgG variant was captured on the anti-human chip surface. […] The kinetics generated using this approach are accurate within the experimental parameters set. This standard assay protocol is best suited to studying 1:1 interactions and thus, may not be ideal for analyzing binding between the IgG variants and the VEGF-D dimer. In light of this, Protocol B was also used.

[9] = target: B5; assay: SPR Protocol B, KD against that of the murine antibody
Protocol: (§5) Protocol B: In the second assay format, Protocol B, the orientation of the IgGs and the VEGF-D antigen was reversed relative to Protocol A. The Source 1 VEGF-D dimer was immobilized directly on the chip surface by amine coupling and the murine anti-VEGF-D monoclonal antibody, Ig-1A or IgG variants flowed over this surface as analytes at concentrations of 4 nM, 1.33 nM, and 0.44 nM. This protocol allowed avidity effects to be controlled by reducing the density of dimeric VEGF-D immobilized on the chip and in effect reduce the bivalent binding properties of the system being analyzed.
All four flow cells on a CM5 chip were activated for 7 min at 25° C. using a mixture of NHS.EDC. Flow cell one was used as an unmodified (activated and blocked) reference against flow cells 2-4. […]
All IgG binding experiments were performed at 25° C. using HBS-EP+ running buffer. Analytes (murine reference anti-VEGF-D monoclonal antibody and humanized variants) were injected for 200 s at a flow rate of 70 μl/min and dissociation monitored for 250 s. […] Binding constants for the IgG/antigen interactions were determined from the three antigen surfaces globally fitted to a 1:1 interaction model. […]

[10] = target: B5; assay: SPR Protocol B: VEGF-D dimer amine-coupled, IgG as analyte
Protocol: as §5
(§6) All four flow cells on a CM5 chip were activated for 7 min at 25° C. using a mixture of NHS.EDC. Flow cell one was used as an unmodified (activated and blocked) reference against flow cells 2-4. Source 1 VEGF-D dimer was diluted to 1-3 μg/ml into 10 mM sodium acetate, pH 4, and injected over three surfaces for different lengths of time to achieve low ligand densities of 10, 15 and 20 RU to minimize avidity effects of the IgG. All surfaces were blocked for 7 min with ethanolamine (1M, pH 8.2) and pre-conditioned using five 10 s injections of 100 mM H₃PO₄; 1M NaCl. Immobilization steps were carried out at a flow rate of 30 μl/min using HBS-N running buffer.
(§7) All IgG binding experiments were performed at 25° C. using HBS-EP+ running buffer. Analytes (murine reference anti-VEGF-D monoclonal antibody and humanized variants) were injected for 200 s at a flow rate of 70 μl/min and dissociation monitored for 250 s. The antigen surfaces were regenerated with a 10 s pulse of 100 mM H₃PO₄; 1M NaCl. Analyte concentrations used for murine and humanized variants were 4 nM, 1.33 nM, and 0.44 nM. Data was processed using the reference surface and double referencing from blank injections. Binding constants for the IgG/antigen interactions were determined from the three antigen surfaces globally fitted to a 1:1 interaction model. Refractive index parameter was constant (RI=0).

[11] = target: B5; assay: SPR Protocol A, KD against that of the murine antibody
[12] = target: B5; assay: cell-based or functional assay
[13] = target: B2; assay: cell-based or functional assay
[14] = target: B5; assay: SPR Protocol B, KD against that of Ig-1A
Protocol: as §5, §6, §7

[15] = target: B5; assay: SPR Protocol A: IgG captured by anti-human Fc, VEGF-D dimer as analyte
Protocol: as §3, §4

[16] = target: B5; assay: SPR, labelled Protocol B in this table
[17] = target: B5; assay: SPR; row labelled Protocol A (IgG captured by anti-human Fc, VEGF-D dimer as analyte); Protocol A line of Table 6
Protocol: as §3, §4

[18] = target: B2; assay: SPR, IgG captured by anti-human IgG (Fc), Source 2 VEGF-D monomer as analyte
[19] = target: B5; assay: SPR, labelled Protocol A in this table; Protocol B by paragraph 399 and Table 7A, though printed as Protocol A
[20] = target: B2; assay: SPR, IgG captured by anti-human IgG (Fc), Source 2 VEGF-D as analyte

VEGFR-2-EpoR chimeric receptor on VEGFR-2-Ba/F3 cells, sequence (P35918 20-762, stated change not applied): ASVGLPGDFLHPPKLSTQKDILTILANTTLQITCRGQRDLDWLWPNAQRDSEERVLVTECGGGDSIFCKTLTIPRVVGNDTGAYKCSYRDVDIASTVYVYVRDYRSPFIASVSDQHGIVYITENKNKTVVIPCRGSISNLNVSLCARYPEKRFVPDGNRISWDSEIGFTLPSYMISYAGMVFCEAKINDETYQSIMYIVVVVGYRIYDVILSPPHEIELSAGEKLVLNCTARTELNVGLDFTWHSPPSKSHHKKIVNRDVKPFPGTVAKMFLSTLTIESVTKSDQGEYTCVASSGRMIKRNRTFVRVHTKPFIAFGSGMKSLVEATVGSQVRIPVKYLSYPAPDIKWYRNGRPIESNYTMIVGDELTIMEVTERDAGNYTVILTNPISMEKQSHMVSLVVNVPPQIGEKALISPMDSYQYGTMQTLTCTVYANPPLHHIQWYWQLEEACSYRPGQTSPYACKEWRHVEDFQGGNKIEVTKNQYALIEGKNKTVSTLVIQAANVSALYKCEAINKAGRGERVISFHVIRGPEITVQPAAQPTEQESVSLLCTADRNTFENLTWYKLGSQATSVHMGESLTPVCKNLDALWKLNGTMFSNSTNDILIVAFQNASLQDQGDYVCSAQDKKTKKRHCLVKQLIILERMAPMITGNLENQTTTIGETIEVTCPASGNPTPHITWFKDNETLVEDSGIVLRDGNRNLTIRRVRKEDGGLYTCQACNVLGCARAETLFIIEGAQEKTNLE

Kd [1]: 10.4 nM
koff [1]: 0.011 s⁻¹
kon [1]: 1.06e+06 M⁻¹ s⁻¹
Kd [2]: 13.1 nM
koff [2]: 0.0108 s⁻¹
kon [2]: 845000 M⁻¹ s⁻¹
Kd [3]: 14.8 nM
koff [3]: 0.0104 s⁻¹
kon [3]: 707000 M⁻¹ s⁻¹
Kd [4]: 13.1 nM
koff [4]: 0.0109 s⁻¹
kon [4]: 769000 M⁻¹ s⁻¹
Kd [5]: 14.2 nM
koff [5]: 0.0109 s⁻¹
kon [5]: 769000 M⁻¹ s⁻¹
Kd [6]: 13.1 nM
koff [6]: 0.0108 s⁻¹
kon [6]: 845000 M⁻¹ s⁻¹
B1: humanized scFv 1A (scFv)
scFv: QVQLVQSGAEVKQPGASVKVSCKASGYTFTGYNMYWVRQAPGQGLEWMGYIDPYNGDTTYNQKFKGRVTMTTDTSTSTAYMELRSLRSDDTAVYYCARTSYYGGMDYWGRGTLVTVASGGGASGGGGSGGGGSDIVMTQTPLSSPVTLGQPASISCRSSQSLVHSNGNTYLHWLQQRPGQPPRLLIYKVSNRFSGVPDRFSGSGAGTDFTLKISRVEAEDVGVYYCSQSTHVPRTFGQGTKLEIKR
notes: also called 1A scFv; clone 1A

Fold-improvement with respect to Ig-1A [8]: 5.5 fold
fold improvement over the original murine anti-VEGF-D monoclonal antibody [9]: 11.5 fold
Kd [10]: 0.4 nM
koff [10]: 0.0019 s⁻¹
kon [10]: 4.8e+06 M⁻¹ s⁻¹
fold improvement over the original murine anti-VEGF-D monoclonal antibody [11]: 23.6 fold
rank in the VEGFR-3-Ba/F3 bioassay [12]: 7 rank
rank in the VEGFR-3-Ba/F3 bioassay [13]: 5 rank
Fold-improvement with respect to Ig-1A [14]: 4.4 fold
Kd [15]: 0.127 nM
koff [15]: 5.8e-05 s⁻¹
kon [15]: 460000 M⁻¹ s⁻¹
B3: humanized IgG antibody derived from clone HU75 (antibody, V domains shown)
VH: QVQLVQSGAEVKQPGASVKVSCKASGYTFTGYNMYWVRQAPGQGLEWMGYIDPYNGDTTYNQKFKGRVTMTTDTSTSTAYMKLRSLRSDDTAVYYCARTSYYGGMDYWGRGTLVTVAS
VL: DIVMTQTPLSGPVTLGQPASISCRSSQSLVHSNGNTYLHWLQQRPGQPPRLLIYKVSNRFSGVPDRFSGSGAGTDFTLKISRVEAEDVGVYYCSQSTHVPRTFGRGTKLEIKR
notes: IgG

The remaining lines, values behind:

Binder: B2
concentration within EC50-EC80 for proliferation of VEGFR-2-Ba/F3 cells [7]: 0.1 µg/mL

B4: Ig-1A, humanized IgG reformatted from scFv 1A (antibody, V domains shown)
VH: QVQLVQSGAEVKQPGASVKVSCKASGYTFTGYNMYWVRQAPGQGLEWMGYIDPYNGDTTYNQKFKGRVTMTTDTSTSTAYMELRSLRSDDTAVYYCARTSYYGGMDYWGRGTLVTVAS
VL: DIVMTQTPLSSPVTLGQPASISCRSSQSLVHSNGNTYLHWLQQRPGQPPRLLIYKVSNRFSGVPDRFSGSGAGTDFTLKISRVEAEDVGVYYCSQSTHVPRTFGQGTKLEIKR
notes: IgG made in mammalian cells; also called humanized Ig-1A
Kd [16]: 0.7 nM
Kd [10]: 1.8 nM
koff [10]: 0.0013 s⁻¹
kon [10]: 720000 M⁻¹ s⁻¹
koff [17]: 0.00059 s⁻¹
kon [17]: 680000 M⁻¹ s⁻¹
Kd [18]: 9.2 nM
koff [18]: 0.00678 s⁻¹
kon [18]: 730000 M⁻¹ s⁻¹
Kd [19]: 0.7 nM
Kd [20]: 16.1 nM
koff [20]: 0.00901 s⁻¹
kon [20]: 494000 M⁻¹ s⁻¹
Kd [15]: 0.696 nM
koff [15]: 0.00049 s⁻¹
kon [15]: 710000 M⁻¹ s⁻¹

Binder: B5
concentration within EC50-EC80 for proliferation of VEGFR-2-Ba/F3 cells [7]: 0.005 µg/mL
